Data on three molecules can be found in publication PMC10661027, “Tuning Plant Promoters Using a Simple Split Luciferase Method to Assess Transcription Factor-DNA Interactions”.

In data set [1] the target is T1, AtTGA1:HiBiT (Arabidopsis thaliana, UniProt Q39237 1-368).
T1 sequence: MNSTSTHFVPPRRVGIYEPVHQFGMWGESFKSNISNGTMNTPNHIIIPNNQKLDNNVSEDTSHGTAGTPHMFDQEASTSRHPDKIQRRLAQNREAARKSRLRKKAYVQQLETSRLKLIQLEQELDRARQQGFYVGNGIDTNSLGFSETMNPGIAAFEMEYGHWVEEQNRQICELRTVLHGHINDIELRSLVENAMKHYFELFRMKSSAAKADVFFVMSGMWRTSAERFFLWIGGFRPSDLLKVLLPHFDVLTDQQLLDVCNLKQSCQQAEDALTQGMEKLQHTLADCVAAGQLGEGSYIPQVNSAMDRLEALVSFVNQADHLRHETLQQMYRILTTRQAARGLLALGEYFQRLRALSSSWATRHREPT
Nature of the data set: qTFD (HiBiT luminescence microplate, relative to rnd); strong rQ; qTFD: 25 mM Tris-HCl pH 8.0, 100 mM KCl, 2 mM DTT, 1 mM EDTA, 0.1% BSA, 500 ng poly(dI-dC), 5% glycerol, 0.05% IGEPAL CA630, 1.5-50 nM protein, 1-3 h, room temperature; EMSA as in cited earlier work. The conditions noted are these: protein: recombinant; tags: C-terminal HiBiT (VSGWRLFKKIS); pH9GW vector, Ni-NTA purified; chain copies: 2; label: none; blunt. Background: In EMSA bound probe runs differently from free probe, usually more slowly.

The target of data set [2] is T1, AtTGA1:HiBiT. The experiment in a line: qTFD (HiBiT luminescence microplate, relative to rnd); qTFD: 25 mM Tris-HCl pH 8.0, 100 mM KCl, 2 mM DTT, 1 mM EDTA, 0.1% BSA, 500 ng poly(dI-dC), 5% glycerol, 0.05% IGEPAL CA630, 1.5-50 nM protein, 1-3 h, room temperature; EMSA as in cited earlier work. The conditions noted are these: protein: recombinant; tags: C-terminal HiBiT (VSGWRLFKKIS); pH9GW vector, Ni-NTA purified; chain copies: 2; label: none; blunt.

Data set [3] addresses T1, AtTGA1:HiBiT. The experiment in a line: EMSA; 1.5-15 nM protein; reduced by unlabelled competitor; qTFD: 25 mM Tris-HCl pH 8.0, 100 mM KCl, 2 mM DTT, 1 mM EDTA, 0.1% BSA, 500 ng poly(dI-dC), 5% glycerol, 0.05% IGEPAL CA630, 1.5-50 nM protein, 1-3 h, room temperature; EMSA as in cited earlier work. To be noted: protein: recombinant; tags: C-terminal HiBiT (VSGWRLFKKIS); pH9GW vector, Ni-NTA purified; chain copies: 2; label: Cy5 (primers); blunt.

B1: TFBS_02 (dsDNA)
DNA 1: TAGCGAAGTACGATCCCGGACCGCTACATTCCAAATAGTCTGACGTAAGCAATGACAAAACTCACCTACATGGCCATCACGCAGTA
DNA 2: TACTGCGTGATGGCCATGTAGGTGAGTTTTGTCATTGCTTACGTCAGACTATTTGGAATGTAGCGGTCCGGGATCGTACTTCGCTA
On to B1, for which the binding result with AtTGA1:HiBiT [1] was “binds”.

B2: CaMV35s as1 (dsDNA)
DNA 1: ATGAAGACGCTGGGTTTACATGGGAATGGCTGACGTAAGGGATGACGCACATGCTTCTGTTCTAACAGGCTAGGATATAA
DNA 2: TTATATCCTAGCCTGTTAGAACAGAAGCATGTGCGTCATCCCTTACGTCAGCCATTCCCATGTAAACCCAGCGTCTTCAT
On to B2, for which the binding result in the data set with AtTGA1:HiBiT [2] is “binds”.

B3: CaMV35s as1 80 bp Cy5 EMSA probe (dsDNA)
DNA 1: ATGAAGACGCTGGGTTTACATGGGAATGGCTGACGTAAGGGATGACGCACATGCTTCTGTTCTAACAGGCTAGGATATAA
DNA 2: TTATATCCTAGCCTGTTAGAACAGAAGCATGTGCGTCATCCCTTACGTCAGCCATTCCCATGTAAACCCAGCGTCTTCAT
As to B3, in the data set with AtTGA1:HiBiT [3], the binding result is on record as “binds”.
